# Test results: the supplement of paper PMC9112550, “Optimization of the antimicrobial peptide Bac7 by deep mutational scanning” (BMC Biology, 2022)
# Tested on: Escherichia coli TOP10
# Assay: shrunken log2 fold change of peptide-encoding DNA abundance (4.5 h post-induction vs induction); higher = less antimicrobial activity (less host growth inhibition)
# Conditions: time post-induction: 4.5 h; library: site-saturation at positions 5, 18, 19, 20
# 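Further: peptides expressed intracellularly from a pBAD plasmid library in pooled LB shake-flask culture, induced with 0.3% L-arabinose, DNA abundance read by NGS, three biological replicates, DESeq2 with apeglm shrinkage.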
row,Sequence,shrunken log2 fold change
1,RRIRTRPPRLPRPRPRPWTNPRP,-0.148
2,RRIRPRPPRLPRPRPRPMGDPRP,0.234
3,RRIRYRPPRLPRPRPRPPVLPRP,-0.132
4,RRIRFRPPRLPRPRPRPAGEPRP,0.191
5,RRIRLRPPRLPRPRPRPVLCPRP,0.168
6,RRIRGRPPRLPRPRPRPIEYPRP,0.0165
7,RRIRFRPPRLPRPRPRPMDWPRP,0.314
8,RRIRIRPPRLPRPRPRPMQWPRP,-0.192
9,RRIRMRPPRLPRPRPRPEAGPRP,2.36
10,RRIRLRPPRLPRPRPRPSFNPRP,-0.529
11,RRIRCRPPRLPRPRPRPWSKPRP,-0.498
12,RRIRFRPPRLPRPRPRPLRTPRP,0.703
13,RRIRPRPPRLPRPRPRPLVVPRP,-0.0898
14,RRIRVRPPRLPRPRPRPGEGPRP,0.62
15,RRIRFRPPRLPRPRPRPGPPPRP,0.909
16,RRIRARPPRLPRPRPRPERTPRP,0.143
17,RRIRQRPPRLPRPRPRPTSFPRP,-0.0413
18,RRIRARPPRLPRPRPRPRSCPRP,0.306
19,RRIRSRPPRLPRPRPRPVCSPRP,0.0822
20,RRIRLRPPRLPRPRPRPSDVPRP,-0.533
21,RRIRIRPPRLPRPRPRPLVSPRP,-0.244
22,RRIRKRPPRLPRPRPRPWHIPRP,-0.0551

row,Sequence,shrunken log2 fold change
1,RRIRARPPRLPRPRPRPEEAPRP,3.84
2,RRIRMRPPRLPRPRPRPPPNPRP,1.77
3,RRIRVRPPRLPRPRPRPGLIPRP,-0.359
4,RRIRGRPPRLPRPRPRPTTCPRP,0.849
5,RRIRMRPPRLPRPRPRPRDLPRP,0.266
6,RRIRMRPPRLPRPRPRPPAIPRP,0.911
7,RRIRIRPPRLPRPRPRPCFGPRP,-0.415
8,RRIRSRPPRLPRPRPRPFSVPRP,-0.416
9,RRIRERPPRLPRPRPRPELEPRP,0.276
10,RRIRNRPPRLPRPRPRPWDPPRP,-0.00879
11,RRIRWRPPRLPRPRPRPVFAPRP,0.394
12,RRIRDRPPRLPRPRPRPTKPPRP,-0.23
13,RRIRSRPPRLPRPRPRPEDYPRP,-0.00134
14,RRIRERPPRLPRPRPRPFWNPRP,-0.51
15,RRIRYRPPRLPRPRPRPPPCPRP,0.574
16,RRIRDRPPRLPRPRPRPSYAPRP,-0.0918
17,RRIRGRPPRLPRPRPRPNWGPRP,0.44
18,RRIRWRPPRLPRPRPRPGERPRP,0.303
19,RRIRARPPRLPRPRPRPQVDPRP,0.04
20,RRIRDRPPRLPRPRPRPYCEPRP,-0.42
21,RRIRIRPPRLPRPRPRPCSIPRP,-0.012
22,RRIRPRPPRLPRPRPRPYVTPRP,-0.239

row,Sequence,shrunken log2 fold change
1,RRIRKRPPRLPRPRPRPTNWPRP,0.689
2,RRIRRRPPRLPRPRPRPEMSPRP,0.0923
3,RRIRARPPRLPRPRPRPLPSPRP,0.353
4,RRIRCRPPRLPRPRPRPFQGPRP,0.203
5,RRIRNRPPRLPRPRPRPPQEPRP,-0.0479
6,RRIRCRPPRLPRPRPRPGWKPRP,0.173
7,RRIRVRPPRLPRPRPRPFRKPRP,-0.0712
8,RRIRQRPPRLPRPRPRPHVHPRP,-0.124
9,RRIRGRPPRLPRPRPRPWWPPRP,0.404
10,RRIRDRPPRLPRPRPRPMGKPRP,3.67
11,RRIRARPPRLPRPRPRPRYTPRP,-0.0676
12,RRIRLRPPRLPRPRPRPQYTPRP,-0.909
13,RRIRNRPPRLPRPRPRPSPEPRP,-0.123
14,RRIRFRPPRLPRPRPRPDWRPRP,0.0737
15,RRIRMRPPRLPRPRPRPYQFPRP,-0.125
16,RRIRWRPPRLPRPRPRPKYFPRP,-0.302
17,RRIRKRPPRLPRPRPRPTEDPRP,1.03
18,RRIRPRPPRLPRPRPRPPTVPRP,0.279
19,RRIRGRPPRLPRPRPRPFDQPRP,0.2
20,RRIRFRPPRLPRPRPRPDWDPRP,0.124
21,RRIRVRPPRLPRPRPRPAERPRP,-0.0583
22,RRIRERPPRLPRPRPRPRPLPRP,0.176

row,Sequence,shrunken log2 fold change
1,RRIRFRPPRLPRPRPRPDTIPRP,-0.498
2,RRIRCRPPRLPRPRPRPSSGPRP,-0.011
3,RRIRFRPPRLPRPRPRPIMVPRP,-0.104
4,RRIRCRPPRLPRPRPRPWDVPRP,0.0309
5,RRIRERPPRLPRPRPRPFPHPRP,-0.15
6,RRIRWRPPRLPRPRPRPNQNPRP,-0.221
7,RRIRGRPPRLPRPRPRPAWQPRP,0.395
8,RRIRSRPPRLPRPRPRPPWLPRP,0.462
9,RRIRRRPPRLPRPRPRPESAPRP,0.493
10,RRIRPRPPRLPRPRPRPTMIPRP,-0.239
11,RRIRRRPPRLPRPRPRPPGPPRP,0.8
12,RRIRSRPPRLPRPRPRPAFVPRP,0.577
13,RRIRKRPPRLPRPRPRPQWSPRP,0.00166
14,RRIRTRPPRLPRPRPRPKIHPRP,-0.427
15,RRIRFRPPRLPRPRPRPFGWPRP,0.0193
16,RRIRQRPPRLPRPRPRPWCSPRP,-0.0146
17,RRIRTRPPRLPRPRPRPQQIPRP,-0.0971
18,RRIRTRPPRLPRPRPRPVNIPRP,-0.136
19,RRIRLRPPRLPRPRPRPLWCPRP,0.159
20,RRIRRRPPRLPRPRPRPWWWPRP,0.184
21,RRIRDRPPRLPRPRPRPQFQPRP,-0.145
22,RRIRVRPPRLPRPRPRPGDTPRP,-0.0412

row,Sequence,shrunken log2 fold change
1,RRIRYRPPRLPRPRPRPFEVPRP,-0.0115
2,RRIRDRPPRLPRPRPRPSESPRP,-0.000946
3,RRIRGRPPRLPRPRPRPITKPRP,-0.0602
4,RRIRGRPPRLPRPRPRPMIPPRP,-0.219
5,RRIRWRPPRLPRPRPRPYWDPRP,-0.415
6,RRIRGRPPRLPRPRPRPCDQPRP,-0.0239
7,RRIRRRPPRLPRPRPRPDGRPRP,0.0193
8,RRIRGRPPRLPRPRPRPYCMPRP,-0.148
9,RRIRFRPPRLPRPRPRPLPAPRP,0.51
10,RRIRPRPPRLPRPRPRPIYQPRP,-0.35
11,RRIRSRPPRLPRPRPRPINWPRP,-0.161
12,RRIRHRPPRLPRPRPRPLACPRP,0.0188
13,RRIRCRPPRLPRPRPRPEDIPRP,-0.12
14,RRIRPRPPRLPRPRPRPHMHPRP,-0.438
15,RRIRKRPPRLPRPRPRPRDPPRP,1.06
16,RRIRERPPRLPRPRPRPQATPRP,-0.0202
17,RRIRYRPPRLPRPRPRPLPLPRP,-0.197
18,RRIRHRPPRLPRPRPRPFEEPRP,0.0124
19,RRIRPRPPRLPRPRPRPHEWPRP,0.278
20,RRIRRRPPRLPRPRPRPLNCPRP,-0.304
21,RRIRARPPRLPRPRPRPTPWPRP,0.563
